# Source: paper PMC10192418, “High-affinity peptides developed against calprotectin and their application as synthetic ligands in diagnostic assays” (Nature Communications, 2023)
# T1: B-RCAL (BÜHLMANN recombinant calprotectin; His6-linker-S100A9-linker-S100A8) (human)
# T1 chain: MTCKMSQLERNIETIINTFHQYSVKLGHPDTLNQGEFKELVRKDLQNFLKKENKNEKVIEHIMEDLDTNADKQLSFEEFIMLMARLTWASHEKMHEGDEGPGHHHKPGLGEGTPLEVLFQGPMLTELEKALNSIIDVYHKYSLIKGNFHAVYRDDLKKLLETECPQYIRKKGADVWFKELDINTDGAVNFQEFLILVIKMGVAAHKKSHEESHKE
# T2: B-RCAL (BÜHLMANN recombinant calprotectin; His6-linker-S100A9-linker-S100A8)
# T2 chain: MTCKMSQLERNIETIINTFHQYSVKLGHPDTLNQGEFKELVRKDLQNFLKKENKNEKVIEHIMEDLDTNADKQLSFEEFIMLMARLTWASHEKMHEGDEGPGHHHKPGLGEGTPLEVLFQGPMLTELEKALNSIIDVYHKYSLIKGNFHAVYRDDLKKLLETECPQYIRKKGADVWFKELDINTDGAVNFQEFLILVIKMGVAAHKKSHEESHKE
# Legend:
# [1] = molecular target: T1, B-RCAL (BÜHLMANN recombinant …); test: FP; conditions: modification not given
# [2] = molecular target: T2, B-RCAL (BÜHLMANN recombinant …); test: fluorescence polarisation; conditions: chain shown with the change, in the presence of calcium ions, three independent measurements
Binder,Kd [1],other results
RSPESVAFAMFQSHWYSG [P9A],30 nM,
RSPESVAFPMFQSHAYSG [W15A],24 nM,
"RCPECVAFPMFQSHWYSG [peptide 3 isomer 1 (dumbbell shaped, double-bridged) C13S; C17S]",,Kd ([2]; Cys1-Cys2 chemically bridged): 16.9 nM
RSPESVAFPMFQSHWYSA [G18A],31 nM,
"RSPESVAFPMFQCHWYCG [peptide 3 isomer 1 (dumbbell shaped, double-bridged) C2S; C5S]",,Kd ([2]; Cys3-Cys4 chemically bridged): 17.9 nM
RSPASVAFPMFQSHWYSG [E4A],26 nM,
